Where no end group is shown, it is not given here.
B1: BB2702 (N-acetylated peptide …) (peptide)
peptide: Ac-HKSRALLIFQKIMWLRRQ
B2: BB2702 (N-acetylated peptide HKSRALLIFQKIMWLRRQ) (peptide)
peptide: Ac-HKSRALLIFQKIMWLRRQ
notes: Synthetic peptide, all L-amino acids, peptide bonds throughout, N-acetylated; also called BB2702 peptide

Tests used:
[1] = molecular target: 6 kinases (of the selectivity panel, with slight activity); assay: cell-based or functional assay
[2] = molecular target: T1, MAP kinase p38α, 6-his C-myc tagged protein expressed in E. coli (human, UniProt Q16539 2-360, limits assumed); assay: biochemical kinase inhibition assay; biochemical enzyme assay, not Biacore
T1 construct: also called human MAP kinase p38α; not shown: 6-his and C-myc tags

[3] = molecular target: T2, uniformly 15N,2H-labelled 6His-MAP kinase p38α (human, UniProt Q16539 2-360, limits assumed, uniformly 15N,2H-labelled); assay: NMR 1H-15N TROSY-HSQC titration, chemical shift changes in slow exchange
T2 construct: not shown: 6His tag

[4] = molecular target: T1, MAP kinase p38α, 6-his C-myc tagged …; assay: cell-based or functional assay
p38β = p38β (UniProt Q15759 1-364, limits assumed); assay: cell-based or functional assay
[5] = molecular target: T3, MAP kinase p38α (non-phosphorylated, OH-p38α) as used in the Biacore inhibition in solution assay (human, UniProt Q16539 2-360, limits assumed); assay: Biacore 3000 inhibition in solution assay; p38α pre-incubated with peptide, free p38α captured on immobilised ureidoquinazoline compound; Biacore inhibition in solution assay
T3 construct: The text says the chip was calibrated with nonphosphorylated or phosphorylated p38α; also called MAPK14; SAPK2a
T3 sequence (Q16539 2-360 limits assumed): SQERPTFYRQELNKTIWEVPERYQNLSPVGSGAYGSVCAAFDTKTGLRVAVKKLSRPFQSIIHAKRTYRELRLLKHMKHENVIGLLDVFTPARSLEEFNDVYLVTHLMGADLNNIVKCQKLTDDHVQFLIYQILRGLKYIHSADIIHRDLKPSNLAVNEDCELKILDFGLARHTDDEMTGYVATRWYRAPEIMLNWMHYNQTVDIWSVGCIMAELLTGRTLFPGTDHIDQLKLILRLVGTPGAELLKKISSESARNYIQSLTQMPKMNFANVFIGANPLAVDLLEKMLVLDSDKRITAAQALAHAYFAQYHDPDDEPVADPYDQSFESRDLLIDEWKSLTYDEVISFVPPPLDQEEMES

T1 sequence (Q16539 2-360 limits assumed): as above
T2 sequence (Q16539 2-360 limits assumed): as above
Sequence of p38β (Q15759 whole entry): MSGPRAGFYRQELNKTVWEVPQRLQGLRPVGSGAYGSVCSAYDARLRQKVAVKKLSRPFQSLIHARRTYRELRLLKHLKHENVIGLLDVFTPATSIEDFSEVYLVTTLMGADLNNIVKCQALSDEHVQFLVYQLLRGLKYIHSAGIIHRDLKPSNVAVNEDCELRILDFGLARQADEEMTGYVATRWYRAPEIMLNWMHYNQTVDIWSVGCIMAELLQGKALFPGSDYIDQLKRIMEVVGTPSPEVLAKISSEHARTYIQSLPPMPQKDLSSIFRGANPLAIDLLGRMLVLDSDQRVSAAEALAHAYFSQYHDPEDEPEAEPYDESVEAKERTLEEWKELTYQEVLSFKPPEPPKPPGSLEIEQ

Row | Binder | selectivity (kinase inhibition) compared to p38α [1] | Ki [2] | Kd [3] | IC50 (inhibition of MAP kinase p38α) [4] | IC50 for inhibition of the activation of MAP kinase p38α by MKK6 [4] | selectivity (kinase inhibition) compared to p38α (p38β) | Kd [5]
1 | B1 | 500 to 1000 fold |  |  |  |  |  | 
2 | B2 |  | 7 nM | < 1000 nM | 7 nM | 1 nM | 100 fold | 25 nM
